The assay addresses human FcRn (neonatal Fc receptor), coupled to a Sepharose affinity column (human) (UniProt P55899). The assay can be described thus: FcRn affinity chromatography.
Sequence of UniProt P55899 (P55899 whole entry, looked up, tested part not stated): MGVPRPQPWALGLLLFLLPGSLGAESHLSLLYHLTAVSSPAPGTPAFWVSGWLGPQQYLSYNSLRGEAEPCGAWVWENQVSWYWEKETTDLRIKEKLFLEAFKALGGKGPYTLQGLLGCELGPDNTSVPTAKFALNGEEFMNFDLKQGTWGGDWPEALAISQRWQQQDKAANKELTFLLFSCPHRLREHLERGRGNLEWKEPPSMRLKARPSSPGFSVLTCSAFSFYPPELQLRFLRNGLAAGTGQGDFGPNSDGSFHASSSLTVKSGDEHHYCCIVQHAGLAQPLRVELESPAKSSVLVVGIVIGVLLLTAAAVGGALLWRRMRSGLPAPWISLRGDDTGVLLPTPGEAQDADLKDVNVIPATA

For the substance “Antibody 4 TM (human IgG1 Fc with the TM modification)”, the retention time on the FcRn affinity column amounted to 15.9 min.

Take Antibody 4 WT (wild-type human IgG1 Fc): the retention time on the FcRn affinity column came out at 16.3 min.
